Results reported in patent US20040259075A1 (US Dept. of Health and Human Services, published 2004).

How the values were obtained:
[1] = molecular target: T1, protein G cross-linked to Sepharose beads; test: binding to protein G cross-linked to Sepharose beads; method not stated
T1 construct: also called protein G beads; Protein G-Sepharose beads

gp120 JRFL = gp120 JRFL (HIV-1 JRFL, UniProt P20871 32-503); test: ELISA, antigen coated (FIG. 1)
gp120JRFL+sCD4 complex = molecular target: T2, gp120JRFL+sCD4 complex (HIV-1 JRFL); test: ELISA, antigen coated (FIG. 1)
T2 construct: domain: gp120;domain: two-domain soluble CD4 (D1D2)

[2] = molecular target: T3, gp120-CD4-CCR5 complex (JRFL gp120) used for the X5 selection (HIV-1 JRFL); test: binding to the complex used for selection; method not stated
sCD4-gp120 89.6 complex = molecular target: T4, sCD4-gp120 89.6 complex (HIV-1 89.6, UniProt Q73372 32-508; P01730 26-208); test: ELISA, antigen coated, Langmuir isotherm fit (FIG. 2)
T4 construct: domain: gp120;domain: two-domain soluble CD4 (D1D2)

gp120 89.6 [3] = molecular target: T5, gp120 89.6 (HIV-1 89.6, UniProt Q73372 32-508); test: as above
T5 construct: domain: gp120

gp120 89.6 [4] = molecular target: T5, gp120 89.6; test: ELISA, antigen coated, Langmuir isotherm fit (FIG. 2 legend)
[5] = molecular target: T1, protein G cross-linked to Sepharose …; test: effective affinity of phage for beads; reference is the gp120-CD4-CCR5 complex
[6] = molecular target: T1, protein G cross-linked to Sepharose …; test: effective affinity of phage for protein G beads; method not stated
[7] = molecular target: T3, gp120-CD4-CCR5 complex (JRFL gp120) …; test: effective affinity of phage for the bead-bound complex; method not stated

Binder	Kd [1] [nM]	Kd (gp120 JRFL) [nM]	Kd (gp120JRFL+sCD4 complex) [nM]	Kd [2] [nM]	Kd (sCD4-gp120 89.6 complex) [nM]	Kd (gp120 89.6 [3]) [nM]	Kd (gp120 89.6 [4]) [nM]	fold lower effective affinity than for the gp120-CD4-CCR5 complex [5] [fold]	Kd [6] [nM]	Kd [7] [nM]
X5 Fab (Fab, also called Fab X5; antibody Fab fragment X5) heavy: EVQLLEQSGAEVKKPGSSVQVSCKASGGTFSMYGFNWVRQAPGHGLEWMGGIIPIFGTSNYAQKFRGRVTFTADQATSTAYMELTNLRSDDTAVYYCARDFGPDWEDGDSYDGSGRGFFDFWGQGTLVTVSSASTKGPSVFPLAPSSKSTSGGTAALGCLVKDYFPEPVTVSWNSGALTSGVHTFPAVLQSSGLYSLSSVVTVPSSSLGTQTYICNVNHKPSNTKVDKKVEPKSCDKTS light: AELVLTQSPGTLSLSAGERATLSCRASQSVSSGSLAWYQQKPGQAPRLLIYGASTRATGIPDRFSGSGSGTDFTLTIGRLEPEDLAVYYCQQYGTSPYTFGQGTKLEIKRTVAAPSVFIFPPSDEQLKSGTASVVCLLNNFYPREAKVQWKVDNALQSGNSQESVTEHDSRDSTYSLGSTLTLSKADYEKHKVYACEVTHQGLSSPVTKSFNRGEC	15	10	2	1	1	9.4	9.3			
Phage-displayed X5 (Fab, also called phage X5; not shown: phage gene III fragment of the phagemid) heavy: EVQLLEQSGAEVKKPGSSVQVSCKASGGTFSMYGFNWVRQAPGHGLEWMGGIIPIFGTSNYAQKFRGRVTFTADQATSTAYMELTNLRSDDTAVYYCARDFGPDWEDGDSYDGSGRGFFDFWGQGTLVTVSSASTKGPSVFPLAPSSKSTSGGTAALGCLVKDYFPEPVTVSWNSGALTSGVHTFPAVLQSSGLYSLSSVVTVPSSSLGTQTYICNVNHKPSNTKVDKKVEPKSCDKTS light: AELVLTQSPGTLSLSAGERATLSCRASQSVSSGSLAWYQQKPGQAPRLLIYGASTRATGIPDRFSGSGSGTDFTLTIGRLEPEDLAVYYCQQYGTSPYTFGQGTKLEIKRTVAAPSVFIFPPSDEQLKSGTASVVCLLNNFYPREAKVQWKVDNALQSGNSQESVTEHDSRDSTYSLGSTLTLSKADYEKHKVYACEVTHQGLSSPVTKSFNRGEC								15	1.4	0.09
